# According to US20170081647A1, “GENETIC DETECTION PLATFORM” (Pharmozyme, Inc., priority 2014, published 2017):
# B1: Bio-HIS-ABS-Taq polymerase (protein)
# chain: MASSLRQILDSQKIEWRSNAGGASHHHHHHGGASLAEAKVLANRELDKYGVSDYHKNLINNAKTVEGVKDLQAQVVESAKKARISEATDGLSDFLKSQTPAEDTVKSIELAEAKVLANRELDKYGVSDYYKNLINNAKTVEGVKALIDEILAALPGTFAHYMDPNLEALFQGPNSLPLFEPKGRVLLVDGHHLAYRTFHALKGLTTSRGEPVQAVYGFAKSLLKALKEDGDAVIVVFDAKAPSFRHEAYGGYKAGRAPTPEDFPRQLALIKELVDLLGLARLEVPGYEADDVLASLAKKAEKEGYEVRILTADKDLYQLLSDRIHVLHPEGYLITPAWLWEKYGLRPDQWADYRALTGDESDNLPGVKGIGEKTARKLLEEWGSLEALLKNLDRLKPAIREKILAHMDDLKLSWDLAKVRTDLPLEVDFAKRREPDRERLRAFLERLEFGSLLHEFGLLESPKALEEAPWPPPEGAFVGFVLSRKEPMWADLLALAAARGGRVHRAPEPYKALRDLKEARGLLAKDLSVLALREGLGLPPGDDPMLLAYLLDPSNTTPEGWPGRYGGEWTEEAGERAALSERLFANLWGRLEGEERLLWLYREVERPLSAVLAHMEATGVRLDVAYLRALSLEVAEEIARLEAEVFRLAGHPFNLNSRDQLERVLFDELGLPAIGKTEKTGKRSTSAAVLEALREAHPIVEKILQYRELTKLKSTYIDPLPDLIHPRTGRLHTRFNQTATATGRLSSSDPNLQNIPVRTPLGQRIRRAFIAEEGWLLVALDYSQIELRVLAHLSGDENLIRVFQEGRDIHTETASWMFGVPREAVDPLMRRAAKTINFGVLYGMSAHRLSQELAIPYEEAQAFIERYFQSFPKVRAWIEKTLEEGRRRGYVETLFGRRRYVPDLEARVKSVREAAERMAFNMPVQGTAADLMKLAMVKLFPRLEEMGARMLLQVHDELVLEAPKERAEAVARLAKEVMEGVYPLAVPLEVEVGIGEDWLSAKE
# B2: Bio-HIS-ABS-Taq polymerase: Taq polymerase with N-terminal biotin-tag, His6 and albumin-binding protein fusion (SEQ ID NO: 1), expressed in E. coli (protein)
# chain: B1 chain
# modifications: N-terminal biotin; Synthetic polypeptide Bio-HIS-ABS-Taq polymerase
# Legend:
# Taq polymerase = target: T1, Taq polymerase (Thermus aquaticus, UniProt P19821, A391P/R392G/V390W); test: Polymerase activity in the presence of a polymerase inhibitor (amplification reaction at 45° C.); format: biochemical
# T1 construct: made in house; host or cells: E. coli Rosetta 2 (DE3), plasmid pET21-Biotin-His6-ABP-Taq
# Description: The assay was fixed at a final volume of 100 μl, and contained reaction components at the following final concentrations: oligonucleotide of SEQ ID NO: 8; 40 μM, dNTPs; 200 μM (each), APS; 1.6 mM, ATP sulfurylase; 0.12 Units, D-Luciferin; 0.3 mM, and Luciferase; 3 μg.
# FIG. 9 illustrates a luminescence assay that indicates the Taq polymerase activity. As shown in FIG. 9A and FIG. 9B, a time course is initially indicated with a lag phase, normally less than 2 minutes, followed by a linear increase in luminescence. The rate of luminescence increase (slope) defines the Taq polymerase activity.
# Hot Start Taq DNA polymerase was obtained from New England BioLabs (NEB). Taq polymerase from New England BioLabs was tested as a control. An amplification reaction was performed to determine the activity of Bio-HIS-ABS-Taq in the presence of human serum albumin (HSA) at 45° C. and to compare the activity of Bio-HIS-ABS-Taq in the presence of HSA with Hot Start Taq polymerase (NEB). The ratio of Bio-HIS-ABS-Taq to HSA is 1:1. Table 2 illustrates the activity of Bio-HIS-ABS-Taq in the presence of HSA compared to the activity of Hot Start Taq Polymerase from NEB.
# [1] = target: human serum albumin (HSA), P02768
# [2] = Protamine-based method optimization: Qubit protein remaining; settings: protamine beads
# Description: For protamine attachment, NHS-activated Sepharose beads were utilized and coupling was performed in 0.1 M HEPES buffer (pH 7.0), with a protein to bead ratio of 25 mg of the protein to 1 ml bead suspension (0.5 ml packed), pre-washed with 1 mM HCl. Attachment of protamine to beads was completed by leaving the suspension on rotation overnight at 4° C., followed by washing with 0.1 M Tris (pH 8.5), to block any remaining NHS groups on beads. The procedure ensured overall coverage of Sepharose beads with the highly charged protamine molecules.
# DNA contaminant removal was accomplished using 15 μl of packed protamine-Sepharose beads per mg Taq polymerase, in 0.05 M sodium acetate, 0.2 M potassium chloride, pH 5.0. After leaving on rotation for 10 minutes, the suspension was centrifuged for 3 minutes at 1000×g, and the supernatant containing the enzyme was tested for DNA contamination, using a Qubit quantitation system.
# pH Optimization: pH at 4.4, 4.75, 5.5, 6, and 7.7 were tested. Buffers used for adjusting the pH included acetate pH 4, acetate pH 5, MES pH 6, HEPES pH 7, and Tris pH 8. In each tube, 4 ul of the protamine bead slurry (protamine from Sigma-Aldrich) was used, 10 ul of buffer, 7 ul of 3.5 M KCl, and 140 ul of the buffer exchanged Bio-HIS-ABS-Taq polymerase. The initial concentrations of the polymerase and DNA contaminant were 0.478 mg/mL and 65.3 ng/mL, respectively.
# Table 4 illustrates the final concentrations of the Bio-HIS-ABS-Taq polymerase and DNA contaminant from a second set of experiment. The initial concentrations of the polymerase and DNA contaminant were 0.55 mg/mL and 65.3 ng/mL, respectively.
# Table 5 illustrates the final concentrations of the Bio-HIS-ABS-Taq polymerase and DNA contaminant from an experiment that modulates the salt concentration. The initial concentrations of the polymerase and DNA contaminant were 0.487 mg/mL and 82.9 ng/mL, respectively.
# [3] = relative to Control #2 (Taq, NEB)
# [4] = KCl 0.145 M, initial polymerase 0.487 mg/mL
# [5] = KCl 0.194 M, initial polymerase 0.487 mg/mL
# [6] = KCl 0.242 M, initial polymerase 0.487 mg/mL
# [7] = KCl 0.291 M, initial polymerase 0.487 mg/mL
# [8] = KCl 0.340 M, initial polymerase 0.487 mg/mL
# [9] = pH 4.4, initial polymerase 0.478 mg/mL
# [10] = pH 4.75, initial polymerase 0.478 mg/mL
# [11] = pH 5.5, initial polymerase 0.478 mg/mL
# [12] = pH 6, initial polymerase 0.478 mg/mL
# [13] = pH 7.7, initial polymerase 0.478 mg/mL
# [14] = second set, pH 4.03, initial polymerase 0.55 mg/mL
# [15] = second set, pH 4.22, initial polymerase 0.55 mg/mL
# [16] = second set, pH 4.40, initial polymerase 0.55 mg/mL
# [17] = second set, pH 4.80, initial polymerase 0.55 mg/mL
molecule,measurement,setting,value
"Control #1 (Taq, NEB): Taq polymerase from New England BioLabs, tested as a control",% activity,"Taq polymerase; Bio-HIS-ABS-Taq to HSA 1:1, relative to Control #1 (Taq, NEB)",100%
same,% activity,Taq polymerase; [3],100%
Hot Start (NEB): Hot Start Taq DNA polymerase obtained from New England BioLabs (NEB),% activity,Taq polymerase; [3],91%
B1,% activity,[1],73%
B2,% protein remaining (comp to buffer exch),[2]; [4],105%
same,Qubit protein remaining,[2]; [4],0.513 mg/mL
same,% protein remaining (comp to buffer exch),[2]; [5],101%
same,Qubit protein remaining,[2]; [5],0.495 mg/mL
same,% protein remaining (comp to buffer exch),[2]; [6],99.9%
same,Qubit protein remaining,[2]; [6],0.487 mg/mL
same,% protein remaining (comp to buffer exch),[2]; [7],70%
same,Qubit protein remaining,[2]; [7],0.339 mg/mL
same,% protein remaining (comp to buffer exch),[2]; [8],55%
same,Qubit protein remaining,[2]; [8],0.271 mg/mL
same,% protein remaining (comp to buffer exch),[2]; [9],97%
same,Qubit protein remaining,[2]; [9],0.462 mg/mL
same,% protein remaining (comp to buffer exch),[2]; [10],60%
same,Qubit protein remaining,[2]; [10],0.288 mg/mL
same,% protein remaining (comp to buffer exch),[2]; [11],61%
same,Qubit protein remaining,[2]; [11],0.292 mg/mL
same,% protein remaining (comp to buffer exch),[2]; [12],64%
same,Qubit protein remaining,[2]; [12],0.308 mg/mL
same,% protein remaining (comp to buffer exch),[2]; [13],75%
same,Qubit protein remaining,[2]; [13],0.360 mg/mL
same,% protein remaining (comp to buffer exch),[2]; [14],94%
same,Qubit protein remaining,[2]; [14],0.459 mg/mL
same,% protein remaining (comp to buffer exch),[2]; [15],95%
same,Qubit protein remaining,[2]; [15],0.486 mg/mL
same,% protein remaining (comp to buffer exch),[2]; [16],96%
same,Qubit protein remaining,[2]; [16],0.505 mg/mL
same,% protein remaining (comp to buffer exch),[2]; [17],93%
same,Qubit protein remaining,[2]; [17],0.497 mg/mL
